Positions count from the first letter of the chain named.
Experiments:
Experiment in all cases: ELISA
Conditions in all cases: both partners purified
[1] = molecular target: T1, recombinant full-length Pfs48/45 (Plasmodium falciparum 3D7, UniProt Q8I6T1)
[2] = molecular target: T2, Pfs48/45 D1-2 (Plasmodium falciparum 3D7, UniProt Q8I6T1)
[3] = molecular target: T1, recombinant full-length Pfs48/45; remark: listed apart in the source
[4] = molecular target: T2, Pfs48/45 D1-2; remark: listed apart in the source

T2 sequence (Q8I6T1 28-289): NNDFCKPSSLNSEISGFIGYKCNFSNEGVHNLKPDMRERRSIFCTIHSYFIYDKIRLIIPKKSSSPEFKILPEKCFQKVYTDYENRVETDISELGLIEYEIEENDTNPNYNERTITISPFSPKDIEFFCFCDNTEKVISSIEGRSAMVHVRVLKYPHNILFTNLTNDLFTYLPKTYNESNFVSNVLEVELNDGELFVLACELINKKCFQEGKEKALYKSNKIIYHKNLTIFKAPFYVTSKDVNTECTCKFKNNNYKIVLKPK
T1 sequence (Q8I6T1 28-428): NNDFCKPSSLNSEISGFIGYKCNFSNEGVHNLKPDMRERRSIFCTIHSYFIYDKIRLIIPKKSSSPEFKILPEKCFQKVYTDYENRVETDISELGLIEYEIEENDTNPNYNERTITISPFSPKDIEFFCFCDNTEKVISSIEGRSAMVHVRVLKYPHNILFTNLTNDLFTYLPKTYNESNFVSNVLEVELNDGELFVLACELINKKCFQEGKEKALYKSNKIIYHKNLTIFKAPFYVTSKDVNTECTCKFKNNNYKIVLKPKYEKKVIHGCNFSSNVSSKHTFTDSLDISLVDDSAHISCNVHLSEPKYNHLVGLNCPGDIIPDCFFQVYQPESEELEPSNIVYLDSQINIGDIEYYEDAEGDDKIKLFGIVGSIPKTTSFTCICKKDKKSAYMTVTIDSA

B1: RUPA-94 (antibody, V domains shown)
VH: QVQLRESGPGLVKPSETLSLTCSVSGGSITSSPYYWAWIRQPPGKGLEWIGSIYYSGGAYYNPSLKSRVTMSVDTSKNQFSLKVNSVTAADTAVYYCARRPNPGFWGGGYYFDYWGQGTLVTVSS
VL: QSALTQPASVSGSPGQSITISCTGSSSDVGSYNLVSWYQHHPGKAPKLMISEVSKRPSGVSDRFSGSKSGNTASLTISGLQAEDEADYYCCSYADSSTRNYVFGTGTKVTVL
notes: human IgG1; source: recombinant human IgG1, 293T (Protein A purified) or GenScript
Question: What does the source list for B1?
Answer: binding result [1]: binds; binding result [2]: binds

B2: RUPA-66 (antibody, V domains shown)
VH: QVQVQQWGAGLLKPSETLSLTCAAFGGSFSDYYWSWIRQPPGKGLEWIGEINHSGTTNYNPSLKSRVIISVDTSKNQFSLKLSSVTAADTALYYCARRSSGWYRRSRYTGWFDPWGQGTLVTVSS
VL: EILMTQSPATLSVSPGERATLSCRASQTITSNLAWYQQKPGQAPRLLMYGASTRATGIPARFSGSGSGTEFTLTISSLQSEDFGIYYCQQYNNWPGLSFGGGTKVEIK
notes: as for B1
Question: Does B2 bind [3]?
Answer: binds

Question: Does B2 bind [4]?
Answer: binds

B3: RUPA-116 (antibody, V domains shown)
VH: QVQLQQWGAGLLKPSETLSLTCVVYGGSFSDYYWSWVRQPPGKGLEWIGEVNHSGTTNYNPSLKSRLTISVDTSKNQISLRLNSLTAADTAVYYCARRSSGYYRQSRYTGWFDPWGRGTLVTVSS
VL: B2 VL with L3V, T28S, M48I, E81D, G84A, I85L, S98T
notes: as for B1
Question: Does B3 bind [1]?
Answer: binds

Question: Does B3 bind [2]?
Answer: binds

B4: RUPA-119 (antibody, V domains shown)
VH: QVRLQQWGAGLLKPSETLSLTCGVSGGSFSDYYWTWIRQPPGKGLEWIGDISHSANTNYNESLQSRLTISVDTSKTQFSLRLASVTAADTALYFCARRSSGWYRQSRYTGWFDPWGQGTLVTVSS
VL: B2 VL with L3V, T28S, M48I, T56A, S77T, G84A, I85V, S98T, K104T
notes: as for B1
Question: Does B4 bind [1]?
Answer: binds

Question: Does B4 bind [2]?
Answer: binds

B5: RUPA-155 (antibody, V domains shown)
VH: QVQLQQWGAGLLKPSETLSLTCAVEGDSLGDYYWSWIRQPPGKGLEWIGDINHSGTTNYIPSLKSRVTISVDSSRNQFSLRLNFVTAADTATYFCARRASGWYRQSRYTGWFDPWGQGTLVTVSS
VL: B2 VL with L3V, Q27H, T28S, T30N, L33V, M48I, S80T, G84A, I85V
notes: as for B1
Question: Does B5 bind [1]?
Answer: binds

Question: Does B5 bind [2]?
Answer: binds

B6: RUPA-75 (antibody, V domains shown)
VH: QVQLQQWGAGLLKPSETLSLTCGVNGGSFTDYYWTWIRQPPGKGLEWIGDINHSGITNYNPSLKSRLTLSVDTSKSHFSLRLNSVTAADTALYFCARRSSGYYRGSRYTGWLDPWGQGTLVTVSS
VL: B2 VL with L3V, R24W, T28S, M48I, E70G, S77T, L78V, G84A, I85V, S98T
notes: as for B1
Question: Does B6 bind [3]?
Answer: binds

Question: Does B6 bind [4]?
Answer: binds

B7: RUPA-122 (antibody, V domains shown)
VH: QITLKESGPTLVKPTQTLMLTCSVSGFSLSNNGVAVGWVRQPPGKALEWLALIYWNDDSFYRPSLKSRLTINKDTSKNQVVLTMTNVAPVDTATYFCARTMKKITMIRGVPYEGGVQGFDPWGPGILVTVSS
VL: DIQMTQSPSSLSASVGDRVTITCRASQGIRDDLAWYQQKPGKAPERLIYAASSLQSGVPSRFSGSGYGTEFTLTISSLQPEDFATYYCQQYSGYFTFGGGTKVEIN
notes: as for B1
Question: Does B7 bind [1]?
Answer: binds

Question: Does B7 bind [2]?
Answer: binds

B8: RUPA-71 (antibody, V domains shown)
VH: EEQLVESGGGLVKPGRSLRLSCSASGFTLGDYAVTWFRQASGKEPEWVGVIRTKDEGGTTEYAASVKGRFSILRDDSKSIAHLQMNSLKIEDTAVYYCTRNGLRWYDSSGPRGWAFDIWGPGTLVVVSS
VL: EIVMTQSPATVSVSPGERATLSCRTSQSVSNKLAWYQQKPGQAPRLLIYGASTRATGIPARFSGSGSGTQFTLTISSLQSEDFAVYYCQQYNNWPPWTFGRGTKVEIK
notes: as for B1
Question: Does B8 bind [3]?
Answer: binds

Question: Does B8 bind [4]?
Answer: binds

B9: RUPA-48 (antibody, V domains shown)
VH: EVQLVESGGGLVQPGRSLRLSCAASGFSFDDHAMHWVRQAPGKGLEWVSGISWNSGNIGYADSVKGRFTISRDNAKNSLYLQMNSLRPEDTALYHCAKDGGYCSGIRCYHLRGMDVWGQGTTVTVSS
VL: EIVLTQSPATLSLSPGERATLSCRASQSVTNYLAWYQQKPGQAPRLLIYDASNRATGIPARFSGSGSGTDFTLTISSLEPEDFGVYYCQQRSSWPPYTFGQGTKLEIK
notes: as for B1
Question: Does B9 bind [3]?
Answer: binds

B10: RUPA-77 (antibody, V domains shown)
VH: QITLKESGPTLVKPTQTLTLTCSFSGFSLTTAGVAVAWIRQPPGQALEWLGIIYWNDDKRYNPSFQNRLTIAKDTSKNQVVLTMTNMDPVDTGTYYCAHRILAAYNYFDPWGQGTLVTVSS
VL: DIQMTQSPPSLSASVGDRVTITCRASQPINNFLNWYQQRPGKAPKLLIYAASRLQSGVPSRFSGSVSGTDFTLTISSLQQEDFAIYYCQQSYTSPLTFGGGTKVEIK
notes: as for B1
Question: What does the source list for B10?
Answer: binding result [3]: binds; binding result [4]: binds

B11: RUPA-130 (antibody, V domains shown)
VH: EVQLVESGGGLVKPGGSLRLSCEASGFTFRNAWMSWVRQAPGKGLEWVGRIKSYIDGGTADYAAPVKGRFSISRDDSKNTLFVQMNSLKTEDTAVYYCTTDSWAGEVGNYYFDNWGQGTLVTVSS
VL: QSALTQPASVSGSPGQSITISCTGTSSDVGSYNFVSWYQQHPGKAPKLMIYQVTWRPSGVSNRFSGSKSGNTASLTISGLQAEDEADYYCCSYSKSSTYVFGTGTKVSVL
notes: source: recombinant human IgG1, 293T (Protein A purified) or GenScript
Question: What does the source list for B11?
Answer: binding result [1]: binds; binding result [2]: binds

B12: RUPA-156 (antibody, V domains shown)
VH: EVQLVESGGGLVQPGGSLRLSCVVSGFTFSRYSMYWVRQAPGKGPEWVSYIDSTGTTIYYADSVKGRFTISRDNAKSSLSLQMSSLRDDDRGVYYCARDGRKDSGSFLDHWGQGTLVTVSS
VL: DIQMTQSPSSLSASVGDRVTITCRASQSISEWLAWYQQKPGKAPRLLIYQASSLQSGVPSRFSGSGSGTEFTLTISSLQSDDFATYYCQQFDTYWTFGQGTKVEIK
notes: as for B1
Question: Which results are given for B12?
Answer: binding result [1]: binds; binding result [2]: binds

B13: RUPA-165 (antibody, V domains shown)
VH: VQLQQWGAGLLKPSETLSLTCLVNGGSFSDYYWSWIRQPPGRGLEWIGDVNHSGTTNHRPSLQSRVTLSLDMSKNQFSLKLTSVTAADTAVYFCARRSSGYYRGSRYTGWLDPWGQGTLVTVSS
VL: IVMTQSPLSLSVSPGERATLSCRASQTITRNLAWYQQKPGQAPRLLIYGASTRAPDIPARFSASGSGTEFTLTISSLQSEDFALYYCQQYNNWPGLTFGGGTKVEIK
notes: as for B1
Question: What does the source list for B13?
Answer: binding result [1]: binds; binding result [2]: binds

B14: RUPA-141 (antibody, V domains shown)
VH: EVQLVESGGGLVQPGESLRLSCAASGFTFNTYWMTWVRQAPGKGLEWVANINQDGSQKNYVDSVKGRFTVSRDNAKKSLFLQMNSLRAEDTAVYYCARDNGARYSGVWYDGWYDAFDIWGRGTVLTVSS
VL: AIQMTQSPSSLSASVGDRVTITCRASQGIKNDLGWYQQKTGKAPKLLIYAASSLQSGVPSRFSGSGSGTDFTLTISSLQPEDFATYYCLQDYNYPRTFGQGTKVEIK
notes: as for B11
Question: Does B14 bind [1]?
Answer: binds

B15: RUPA-58 (antibody, V domains shown)
VH: QVQLVQSGPEAKKPGASVKVSCQASGYPFSGYYMHWLRQAPGQGLEWMGWMNPNSGGTKYAQRFQGRVTMTRDTSISTAHMELRGLRSDDTAVYYCARDYCTGSSCYRTDYDYWGQGTLVTVSS
VL: DIQMTQSPSSLSASVGDRVTITCRASQIISTYLNWYQHKPGKAPKLLIKSASTLQSGVPSRFSGSGSGTDFTLTITSLQPEDFATFYCQQSYRDPITFGQGTRLEIK
notes: as for B1
Question: Which results are given for B15?
Answer: binding result [3]: binds; binding result [4]: binds

B16: RUPA-164 (antibody, V domains shown)
VH: QVQLQESGPGLVKPSETLSLTCSVSGGSMTSFYWSWIRQPPGKGLEWIGYVYYNGTTNYKPSLKSRVTISVDMSKNQVSLKLSSVTAADTAVYYCARDRVVGSYYYGMDVWGQGTTVTVSS
VL: EIVLTQPPVSLSLSPGEGATLSCRASQSVSSSYLAWYQQKPGQAPRLLMYSASRRATGIPDRFTGSGSGTDFTLTISRLEPEDFALYYCQHYGGSPRETFGQGTKVEIK
notes: as for B1
Question: Does B16 bind [1]?
Answer: binds

Question: Does B16 bind [2]?
Answer: binds

B17: RUPA-67 (antibody, V domains shown)
VH: QVQLLESGPGLVKPSETLSLTCTVSGASISTSYWSWIRQPAGKGLEWIGRFHISESSNYNPSLKSRLTLSADTSKNQVSLRLSSVTAADTAVYYCARDVSPEECVSTKCYRRPGYMDVWGKGTSVTVSS
VL: DIQMTQSPSSLSASVGDRVTITCRASQSIRNYLNWYLQKPGKAPKLLIFGASSLQSGVPSRFSGSGSGTDFTLTISSLLPEDFATYYCQQSYTTPRTFGQGTKVEIK
notes: as for B1
Question: Does B17 bind [3]?
Answer: binds

B18: RUPA-114 (antibody, V domains shown)
VH: QVYLVQSGAEVKKPGASVKVSCKASGYDFTSYGIAWVRQAPGQGLEWMGWIGGYDDKTDYAQNLQGRFTVTTDTSTSTAYMELRSLKSDDTAVYYCARGGDRGDGLRFYYFALDVWGQGTTVTVSS
VL: DIVLAQSPGTLSLSPGEGATLSCRASQSIYNSYLAWYQHKPGQAPRLLIYGASSRATGIPDRFSGSGSGTDFTLTISRLEPEDFAVYYCQLYGRSSWTFGQGTKVEIK
notes: as for B1
Question: Does B18 bind [1]?
Answer: binds

Question: Does B18 bind [2]?
Answer: binds

B19: RUPA-51 (antibody, V domains shown)
VH: QVQLVQPGAEVKKPGASVKVSCKASGYIFSTYGISWVRQAPGQGLEWMGWTSSYSDDTNYAQKFQDRVTMTTDTSTSTAYMELRSLRSDDTAVYYCARGGDRGDGPRFYYYGLDVWGQGTTVTVSS
VL: B18 VL with D1E, A5T, G18R, I29L, H39Q, D61G, T73S, Q90S
notes: as for B1
Question: Does B19 bind [3]?
Answer: binds

B20: RUPA-158 (antibody, V domains shown)
VH: B19 VH with D89G, F108Y
VL: B18 VL with D1E, A5T, G9S, G18R, I29L, H39Q, D61G, T73S, Q90S
notes: as for B1
Question: Does B20 bind [1]?
Answer: binds
